B1: human RPB6 (residues 1–24), NTT peptide (peptide, UniProt P61218 1-24, looked up)
peptide: MSDNEDNFDGDDFDDVEEDEGLDD
notes: RPB6, human, N-terminal tail (NTT), residues 1-24; also called NTT peptide derived from human RPB6
B2: human RPB6 (residues 1–24) F8A (peptide, UniProt P61218 1-24, looked up)
peptide: MSDNEDNADGDDFDDVEEDEGLDD
notes: RPB6, human, N-terminal tail, residues 1-24, with F8A
B3: human RPB6 (residues 1–24) S2A (peptide, UniProt P61218 1-24, looked up)
peptide: MADNEDNFDGDDFDDVEEDEGLDD
notes: RPB6, human, N-terminal tail, residues 1-24, with Ser2 substituted to alanine; also called Ser2 alanine substitution
B4: human RPB6 (residues 1–24) F13A (peptide, UniProt P61218 1-24, looked up)
peptide: MSDNEDNFDGDDADDVEEDEGLDD
notes: RPB6, human, N-terminal tail, residues 1-24, with F13A
B5: human RPB6 (residues 1–24) F13A-V16A (peptide, UniProt P61218 1-24, looked up)
peptide: MSDNEDNFDGDDADDAEEDEGLDD
notes: RPB6, human, N-terminal tail, residues 1-24, with F13A and V16A; also called F13A-V16A double mutation
B6: human RPB6 (residues 1–24) V16A (peptide, UniProt P61218 1-24, looked up)
peptide: MSDNEDNFDGDDFDDAEEDEGLDD
notes: RPB6, human, N-terminal tail, residues 1-24, with V16A
B7: human TFIIH p62 PH domain (PH-D) (residues 1–108) (domain or fragment)
chain: MATSSEEVLLIVKKVRQKKQDGALYLMAERIAWAPEGKDRFTISHMYADIKCQKISPEGKAKIQLQLVLHAGDTTNFHFSNESTAVKERDAVKDLLQQLLPKFKRKAN
notes: p62 subunit of the general transcription/repair factor TFIIH, human, N-terminal pleckstrin homology (PH) domain, residues 1-108; Unlabeled, 15N-labeled or 13C/15N-labeled according to the experiment; Expressed from pET15b; a few vector residues may remain after thrombin cleavage (surmise); source: E. coli BL21 (DE3) Gold, purified (Ni-NTA, thrombin digestion, Superdex75)

One assay addresses B7. Kind of assay: ITC; 100∼300 μM RPB6/Rpb6 peptide in the syringe titrated into 10–30 μM p62 PH-D in the cell; 20 mM potassium phosphate (pH 6.8) with or without 25 mM NaCl, 20°C; VP-ITC. As to conditions: both partners purified. For orientation: ITC needs no label: the signal is the heat of the interaction.
As to B1, the binding result is recorded as “binds”.
With B2, the binding result is given as “binds”.
Still for that read-out and setting: the result for B3 reads “binds”; that for B4, “binds”; that for B5, “binds”.
Still for that read-out and setting: under B6 stands “binds”.

The next assay concerns the target human RPB6 (residues 1–127), full-length (human, UniProt P61218 1-127). Kind of assay: NMR structure; complex at 0.38 mM, 13C/15N-labeled RPB6 with unlabeled p62 PH-D at 1.0:2.0 (and 13C/15N-labeled p62 PH-D with unlabeled RPB6); 20 mM potassium phosphate (pH 6.8), 25 mM NaCl, 5 mM deuterated DTT, 25°C; intermolecular NOEs. As to conditions: both partners purified.
As for B7, the binding result is given as “binds”.

Values taken from PMC8754651, “Three human RNA polymerases interact with TFIIH via a common RPB6 subunit” (Nucleic Acids Research, 2021).
